Test results published in paper PMC7404038, “Chaperone-Like Activity of HSPB5: The Effects of Quaternary Structure Dynamics and Crowding” (International Journal of Molecular Sciences, 2020).

T1: Ca2+-depleted α-lactalbumin (UniProt P00711 20-142)
T1 sequence (looked up): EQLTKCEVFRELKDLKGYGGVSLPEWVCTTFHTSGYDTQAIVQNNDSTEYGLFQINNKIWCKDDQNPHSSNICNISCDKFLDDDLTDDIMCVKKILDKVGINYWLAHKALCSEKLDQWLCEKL

B1: glycogen phosphorylase b from rabbit skeletal muscles (enzyme, UniProt P00489 1-843, looked up)
chain: MSRPLSDQEKRKQISVRGLAGVENVTELKKNFNRHLHFTLVKDRNVATPRDYYFALAHTVRDHLVGRWIRTQQHYYEKDPKRIYYLSLEFYMGRTLQNTMVNLALENACDEATYQLGLDMEELEEIEEDAGLGNGGLGRLAACFLDSMATLGLAAYGYGIRYEFGIFNQKICGGWQMEEADDWLRYGNPWEKARPEFTLPVHFYGRVEHTSQGAKWVDTQVVLAMPYDTPVPGYRNNVVNTMRLWSAKAPNDFNLKDFNVGGYIQAVLDRNLAENISRVLYPNDNFFEGKELRLKQEYFVVAATLQDIIRRFKSSKFGCRDPVRTNFDAFPDKVAIQLNDTHPSLAIPELMRVLVDLERLDWDKAWEVTVKTCAYTNHTVLPEALERWPVHLLETLLPRHLQIIYEINQRFLNRVAAAFPGDVDRLRRMSLVEEGAVKRINMAHLCIAGSHAVNGVARIHSEILKKTIFKDFYELEPHKFQNKTNGITPRRWLVLCNPGLAEIIAERIGEEYISDLDQLRKLLSYVDDEAFIRDVAKVKQENKLKFAAYLEREYKVHINPNSLFDVQVKRIHEYKRQLLNCLHVITLYNRIKKEPNKFVVPRTVMIGGKAAPGYHMAKMIIKLITAIGDVVNHDPVVGDRLRVIFLENYRVSLAEKVIPAADLSEQISTAGTEASGTGNMKFMLNGALTIGTMDGANVEMAEEAGEENFFIFGMRVEDVDRLDQRGYNAQEYYDRIPELRQIIEQLSSGFFSPKQPDLFKDIVNMLMHHDRFKVFADYEEYVKCQERVSALYKNPREWTRMVIRNIATSGKFSSDRTIAQYAREIWGVEPSRQRLPAPDEKIP
notes: glycogen phosphorylase, muscle form, b form, rabbit; subunit 97.4 kDa as printed; In the assays partially unfolded by heating at 48 °C; also called Phb; muscle glycogen phosphorylase b

Tests used:
[1] = biological target: the molecule itself; experiment: AUC; sedimentation velocity, Phb 0.4 mg/mL, HSPB5 0.26 mg/mL and their mixture, Hepes buffer with PEG 20 kDa 25 mg/mL and PVP 25 kDa 12.5 mg/mL (mixed crowding), 48 °C, 48,000 rpm
[2] = biological target: B1; experiment: cell-based or functional assay
[3] = biological target: T1, Ca2+-depleted α-lactalbumin; experiment: cell-based or functional assay
[4] = biological target: the molecule itself; experiment: AUC; sedimentation velocity, Phb 0.5 mg/mL with HSPB5 0, 0.025 or 0.075 mg/mL, 30 mM Hepes, pH 6.8, 0.1 M NaCl, 0.2 mM EDTA, 48 °C, 48,000 rpm; masses by the Svedberg equation with diffusion coefficients from DLS

Row | stoichiometry S0 of the chaperone-target protein complex from suppression of thermal aggregation of Phb at 48 °C (DLS; Kagg/Kagg,0 = 1 − x/S0) [2] | initial stoichiometry S0 of the HSPB5-αLa complexes from suppression of DTT-induced aggregation of αLa at 37 °C (DLS; (Kagg/Kagg,0)^1/b versus [HSPB5]/[αLa]) [3] | Binder | binding result [1] | stoichiometry N [4]
1 | 0.31 HSPB5 subunits per Phb monomer (molar ratio) | 0.011 HSPB5 subunits per αLa molecule (molar ratio) | Human full-length untagged HSPB5 (αB-crystallin) (natural protein, UniProt P02511 1-175, looked up, αB-crystallin (HSPB5), human, full length, untagged; subunit mass 20.2 kDa as printed; Polydisperse oligomer whose size depends on concentration, temperature and crowding; the preparation was a gift of N. Sluchanko; also called the chaperone; source: expressed and purified as described earlier [104]) MDIAIHHPWIRRPFFPFHSPSRLFDQFFGEHLLESDLFPTSTSLSPFYLRPPSFLRAPSWFDTGLSEMRLEKDRFSVNLDVKHFSPEELKVKVLGDVIEVHGKHEERQDEHGFISREFHRKYRIPADVDPLTITSSLSSDGVLTVNGPRKQVSGPERTIPITREEKPAVTAAPKK | binds | 
2 |  |  | B1 |  | 2
